According to publication PMC4889239:

Biological target: ataxia-telangiectasia mutated (ATM) kinase, full-length human (human) (UniProt Q13315)
Experiment: negative-stain single-particle electron microscopy
Conditions: remark: other sources report otherwise

## ataxia-telangiectasia mutated (ATM) kinase, full-length human, Q13315 1-3056
  percent of the particles that are dimers (% of the particles): 60
